The data set deals with the molecule itself. Description: cross-linking.

B1: IpgC (natural protein)
chain: MSLNITENESISTAVIDAINSGATLKDINAIPDDMMDDIYSYAYDFYNKGRIEEAEVFFRFLCIYDFYNVDYIMGLAAIYQIKEQFQQAADLYAVAFALGKNDYTPVFHTGQCQLRLKAPLKAKECFELVIQHSNDEKLKIKAQSYLDAIQDIKE
Regarding B1, the “stoichiometry N” value is 2.

The values are drawn from PMC3903306 (Biochemistry, 2012).
